This is an account of results in patent US20130189255A1, “FUSIONS AND CONJUGATES OF INSULINOTROPIC AGENTS” (GLAXO GROUP LIMITED, priority 2008, published 2013).

The series in a line: Thermal denaturation by differential scanning calorimetry (DSC). It is filed as physicochemical. Particulars: 1 mg/ml, 20 mM citrate pH6.2, 100 mM NaCl, 180° C./hour, non-2-state model. On the technique in general: In DSC, transitions show as peaks or steps in heat flow.

Protocol: Protein was dialysed overnight into 20 mM citrate pH6.2, 100 mM NaCl, filtered and then prepared at concentration of 1 mg/ml as determined by absorbance at 280 nm. Filtered dialysis buffer was used as a reference for all samples. DSC was performed at a heating rate of 180° C./hour. Before each sample a solution of 1% decon, and then buffer were injected to clean the cells and to provide instrumental baseline. Obtained traces were analysed using Origin 7 Microcal software. The DSC trace obtained from the reference buffer was subtracted from the sample trace. Precise molar concentration of the sample was used for calculations (performed automatically by Origin). Baseline setting for both upper and lower baselines linear regions before/after transition were selected and connected using cubic connect function. The resulting graph is fitted to non-2-state model, generating apparent Tm, and ΔH/ΔHv values.

Substance lysozyme yielded an appTm of 76.2 °C.
